Values quoted from earlier work as cited in patent US20240293553A1, “P-SELECTIN INHIBITORS AND USES THEREOF” (Beth Israel Deaconess Medical Center, Inc., priority 2021, published 2024).
“And” between values parts separate entries of the source, which are not always exact repeats. Equal entries are not always repeated. Each block holds one molecule with its values, some of them ahead of it.

Legend:
P-selectin = biological target: T1, P-selectin (Homo sapiens, UniProt P16109); settings: reported values
T1 sequence (P16109 42-830): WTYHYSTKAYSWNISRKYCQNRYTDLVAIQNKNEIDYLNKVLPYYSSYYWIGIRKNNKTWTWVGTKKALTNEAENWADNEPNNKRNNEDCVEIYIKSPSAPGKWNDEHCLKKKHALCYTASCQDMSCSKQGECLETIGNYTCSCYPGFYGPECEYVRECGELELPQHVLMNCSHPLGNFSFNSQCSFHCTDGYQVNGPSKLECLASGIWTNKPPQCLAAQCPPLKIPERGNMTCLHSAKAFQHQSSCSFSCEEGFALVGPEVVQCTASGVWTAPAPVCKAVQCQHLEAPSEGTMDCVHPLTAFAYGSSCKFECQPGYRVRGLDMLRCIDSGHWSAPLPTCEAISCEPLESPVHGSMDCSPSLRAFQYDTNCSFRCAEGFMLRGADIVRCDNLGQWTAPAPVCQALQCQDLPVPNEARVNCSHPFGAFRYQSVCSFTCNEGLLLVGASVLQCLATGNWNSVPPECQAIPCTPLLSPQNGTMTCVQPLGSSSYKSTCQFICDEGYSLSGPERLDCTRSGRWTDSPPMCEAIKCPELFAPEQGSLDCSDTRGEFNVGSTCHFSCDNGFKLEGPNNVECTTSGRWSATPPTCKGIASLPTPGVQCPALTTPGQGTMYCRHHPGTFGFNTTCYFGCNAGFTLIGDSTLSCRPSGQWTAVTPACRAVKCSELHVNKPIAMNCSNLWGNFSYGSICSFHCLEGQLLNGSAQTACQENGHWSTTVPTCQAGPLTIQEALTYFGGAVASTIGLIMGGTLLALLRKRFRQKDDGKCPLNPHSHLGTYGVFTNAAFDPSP

[1] = literature values

Kd (P-selectin): 73 nM and 70 to 300 nM
B1: PSGL-1: P-selectin glycoprotein ligand-1, glycoprotein expressed on the surface of all leukocytes; native ligand of P-selectin (protein, UniProt Q14242 42-412, looked up)
P-selectin glycoprotein …: QATEYEYLDYDFLPETEPPEMLRNSTDTTPLTGPGTPESTTVEPAARRSTGLDAGGAVTELTTELANMGNLSTDSAAMEIQTTQPAATEAQTTQPVPTEAQTTPLAATEAQTTRLTATEAQTTPLAATEAQTTPPAATEAQTTQPTGLEAQTTAPAAMEAQTTAPAAMEAQTTPPAAMEAQTTQTTAMEAQTTAPEATEAQTTQPTATEAQTTPLAAMEALSTEPSATEALSMEPTTKRGLFIPFSVSSVTHKGIPMAASNLSVNYPVGAPDHISVKQCLLAILILALVATIFFVCTVVLAVRLSRKGHMYPVRNYSPTEMVCISSLLPDGGEGPSATANGGLSKAKSPGLTPEPREDREGDDLTLHSFLP

B2: crizanlizumab: anti-P-selectin mAb approved for the treatment of sickle cell disease (antibody, chains of the INN, looked up, V domains shown)
VH: QVQLVQSGAEVKKPGASVKVSCKVSGYTFTSYDINWVRQAPGKGLEWMGWIYPGDGSIKYNEKFKGRVTMTVDKSTDTAYMELSSLRSEDTAVYYCARRGEYGNYEGAMDYWGQGTLVTVSS
VL: DIQMTQSPSSLSASVGDRVTITCKASQSVDYDGHSYMNWYQQKPGKAPKLLIYAASNLESGVPSRFSGSGSGTDFTLTISSLQPEDFATYYCQQSDENPLTFGGGTKVEIK
t1/2 [1]: 10.6 days
